Measured values as given in patent US20110182904A1 (published 2011).
Where no end group is shown, it is not given here.

T1: human bone morphogenic protein 4 (BMP4) (human, UniProt P12644 293-408)
T1 construct: Bought recombinant human BMP4 (R&D Systems); also called recombinant human BMP4
T1 sequence: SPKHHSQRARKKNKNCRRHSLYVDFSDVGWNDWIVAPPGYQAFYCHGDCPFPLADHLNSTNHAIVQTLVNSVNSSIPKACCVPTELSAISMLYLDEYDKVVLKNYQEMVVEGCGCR

T2: BMP2 epitope peptide QAKHKQRKRLKSSCKRH (SEQ ID NO:93) (human, also: biotin conjugated, site not given here)
T2 construct: Biotinylated peptide captured on a streptavidin chip
T2 peptide: QAKHKQRKRLKSSCKRH

T3: BMP2 epitope peptide ISMLYLDENEKVVLK (SEQ ID NO:92) (human, also: biotin conjugated, site not given here)
T3 construct: Biotinylated peptide captured on a streptavidin chip
T3 peptide: ISMLYLDENEKVVLK


How the values were obtained:
[1] = molecular target: T1, human bone morphogenic protein 4 (BMP4); assay: SPR (Biacore); mAb captured via anti-human Fc, BMP flowed at 10 nM
Method: (§1) The antigen-antibody association kinetics was followed for 2 minutes and the dissociation kinetics was followed for 8 minutes. The association and dissociation curves were fit to a 1:1 Langmuir binding model using BIAevaluation software (Biacore, AB).

[2] = molecular target: T4, human bone morphogenic protein 2 (BMP2) (human, UniProt P12643 283-396, Disulfide-linked homodimer of this chain (non-reduced band of about 36 kDa, monomers of 17-18 kDa); one copy is given.); assay: as above
T4 construct: Bought recombinant human BMP2 (R&D Systems or Medtronic); also called recombinant human BMP2
T4 sequence (P12643 283-396 limits assumed): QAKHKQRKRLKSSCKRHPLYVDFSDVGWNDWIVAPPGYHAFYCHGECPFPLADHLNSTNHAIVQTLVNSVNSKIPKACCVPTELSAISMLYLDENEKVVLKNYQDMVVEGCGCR
Method: as §1

[3] = molecular target: T4, human bone morphogenic protein 2 (BMP2); assay: cell-based or functional assay
[4] = molecular target: T1, human bone morphogenic protein 4 (BMP4); assay: cell-based or functional assay
[5] = molecular target: T2, BMP2 epitope peptide QAKHKQRKRLKSSCKRH …; assay: SPR (Biacore); biotinylated peptide on streptavidin chip, antibody at 40 ug/ml
[6] = molecular target: T3, BMP2 epitope peptide ISMLYLDENEKVVLK …; assay: as above
[7] = molecular target: T1, human bone morphogenic protein 4 (BMP4); assay: Biacore competition: mAb (two-fold series from 400 nM) pre-incubated with BMP4 (3-10 nM), mixture injected over immobilised type II BMP receptor; response = BMP4 binding to the receptor
Method: Both type-I and type-II BMP receptors were covalently linked to a CM5 chip (carboxy methyl dextran coated chip) via primary amines, using the standard amine coupling chemistry and kit provided by Biacore. Mixtures of antibody-antigen complex were flowed across the immobilized receptors. […] Antibody-antigen mixtures were injected at a flow rate of 5 μl/min for 3 minutes.

| Kd [1] [nM] | koff [1] [s⁻¹] | kon [1] [M⁻¹ s⁻¹] | Kd [2] [nM] | koff [2] [s⁻¹] | kon [2] [M⁻¹ s⁻¹] | IC50 (read off the curve) [3] [µg/mL] | IC50 (read off the curve) [4] [µg/mL] | binding result [5] | binding result [6] | IC50 (read off the curve) [7] [nM] | Binder |
| --- | --- | --- | --- | --- | --- | --- | --- | --- | --- | --- | --- |
| 0.0003 | 1.27e-06 | 4.97e+06 | 0.02 | 8.49e-05 | 4.65e+06 |  |  |  |  |  | 1F6 human monoclonal antibody (antibody, V domains shown, Human IgG from a HuMAb/KM mouse hybridoma) VH: QVQLQESGPGLVKPSETLSLTCTVSGDSISSYYWSWIRQPPGKGLEWIGYIYYSGSTRYNPPLKSRVTISVDTSKNQFSLKLSSVTAADTAVYYCARICSSTSCWGWFDPWGQGTLVTVSS VL: not shown |
| 0.0007 | 3.04e-08 | 45300 | 0.01 | 3.09e-05 | 2.83e+06 | ~3 | ~3 | binds |  |  | 11F2 human monoclonal antibody (antibody, V domains shown, Human IgG from a HuMAb/KM mouse hybridoma) VH: QVQLQESGPGLVKPSETLSLTCTVSGDSIRSYYWSWIRQPPGKGLEWIGYIYYRGSTHYNPSLKSRVTISVDTSKNQFSLKMSSVTAADTAVYYCARICSSISCWGWFDPWGQGTLVTVSS VL: not shown |
| 0.18 | 0.000827 | 4.69e+06 | 0.19 | 0.000582 | 3.02e+06 |  |  |  | binds |  | 8B3 human monoclonal antibody (antibody, V domains shown, Human IgG from a HuMAb/KM mouse hybridoma) VH: QVQLVQSGAEVKKPGSSVKVSCKASGGTFSSYAISWVRQAPGQGLEWMGRIIPILGIAQYAQKFQGRVTLTADKSTSTAYMELSSLRSEDTAVYYCARGKDIWGQGTMVTVSS VL: not shown |
| 0.38 | 0.0014 | 3.65e+06 | 0.12 | 0.000654 | 5.71e+06 |  |  |  |  | ~100 | 33F7 human monoclonal antibody (antibody, V domains shown, Human IgG from a HuMAb/KM mouse hybridoma) VH: QVQLVQSGAEVKKPGSSVKVSCKASGGTFSSYAINWVRQAPGQGLEWMGRLIPILGIANYAQKFQGRVTITADKSTSTAYMELSSLRSEDTAVYYCARGKDIWGQGTMVTVSS VL: EIVLTQSPGTLSLSPGERVTLSCRASQSVSSNYLAWYQQKPGQAPRLLIKGASSRATGIPDRFSGSGSGTDFTLTISRLEPEDFAVYYCQQYGSSPCTFGQGTKLEIK |
| 0.42 | 0.0012 | 2.84e+06 | 0.28 | 0.00114 | 4e+06 |  |  |  | binds |  | 7D6 human monoclonal antibody (antibody, V domains shown, Human IgG from a HuMAb/KM mouse hybridoma) VH: QVQLVQSGAEVKKPGSSVKVSCKASGGTFSSYAISWVRQAPGQGLEWMGRIIPILGIVNYAQKFQGRVTITADKSTSTAYMELSSLRSEDTAVYYCARGKDIWGQGTMVTVSS VL: EIVLTQSPGTLSLSPGERATLSCRASQIVISTYLAWYQQKPGQAPRLLIYGASSRATGIPDRFSGSGSGTDFTLTISRLEPEDFAVYYCQQYGSSPCTFGQGTKLEIK |
| 0.18 | 0.00056 | 3.14e+06 | 0.03 | 0.00027 | 7.96e+06 |  |  |  |  |  | 15F3 human monoclonal antibody (antibody, V domains shown, Human IgG from a HuMAb/KM mouse hybridoma) VH: QVQLVQSGAEVKKPGSSVKVSCKASGGTFSSYAISWVRQAPGQGLEWMGRIIPILGIAQYAQKFQGRVTLTADKSTNTAYMELSSLRSEDTAVYYCARGKDIWGQGTMVTVSS VL: not shown |
| 0.28 | 0.000482 | 1.75e+06 | 0.02 | 8.26e-05 | 3.39e+06 |  |  | binds |  | ~20 | 12E3 human monoclonal antibody (antibody, V domains shown, Human IgG from a HuMAb/KM mouse hybridoma) VH: QVQLVESGGGVVQPGRSLRLSCAASGFTFSSYGMHWVRQAPGKGLEWVAVIWDDGRKKYYADSVKGRFTISRDNSKNTLYLQMNSLRAEDTAVYYCAREPAGVWGMDVWGQGTTVTVSS VL: DIQMTQSPSSLSASVGDRVTITCRASQGISSWLAWYQQKPEKAPKSLIYAASSLQSGVPSRFSGSGSGTDFTLTISSLQPEDFATYYCQQYNSYPLTFGGGTKVEIK |
| 0.02 | 6.12e-05 | 2.86e+06 | 0.08 | 0.000282 | 3.7e+06 |  |  | binds |  |  | 16B7 human monoclonal antibody (antibody, V domains shown, Human IgG from a HuMAb/KM mouse hybridoma) VH: QVQLVESGGGVVQPGRSLRLSCAASGFTFSNYGIHWVRQAPGKGLEWVAVIWYDGSHKYYADSMKGRFTISRDNSKNTLDLQMNSLRAEDTAVYYCARGSSSWYFDLWGRGTLVTVSS VL: DIQMTQSPSSLSASVGDRVTITCRASQGISSWLAWYQQKPEKAPKSLIYAASSLQSGVPSRFSGSGSGTDFTLTISSLQPEDFATYYCQQYNSYPLTFGGGTKVEIK |
| 0.75 | 0.00197 | 2.61e+06 | 0.19 | 0.000385 | 2.04e+06 |  |  |  |  |  | 10F6 human monoclonal antibody (antibody, V domains shown, Human IgG from a HuMAb/KM mouse hybridoma) VH: QVQLVESGGGVVQPGRSLRLSCAASGFTFRSYGIHWVRQAPGKGLEWVAVIWYDGSHKYYADSVKGRFTISRDNSKNTLDLQMNSLRAEDTAVYYCVRGSSNWYFDYWGQGTLVTVSS VL: DIQMTQSPSSLSASVGDRVTITCRASQGISSWLAWYQQKPEKAPKSLIYAASSLQSGVPSRFSGSGSGTDFTLTISSLQPEDFATYYCQQYNSYPLTFGGGTKVEIK |
| 0.3 | 0.000497 | 2e+06 | 0.1 | 0.000198 | 1.42e+06 |  |  |  |  |  | 6H4 human monoclonal antibody (antibody, V domains shown, Human IgG from a HuMAb/KM mouse hybridoma) VH: QVHLQQWGAGLLKPSETLSLTCAVYGGSFSGYYWSWIRQPPGKGLEWIGEINHSGSTNYNPSLKSRVTISVDTSKNQFSLKLSSVTAADTAVYYCAREYYYGSESEYFQHWGQGTLVTVSS VL: EIVLTQSPATLSLSPGERATLSCRASQSVSSYLAWYQQKPGQAPRLLIYDASNRATGIPARFSGSGSGTDFTLTISSLEPEDFAVYYCQQRSNWPHTFGQGTKLEIK |
